Tests used:
native human ApoC3 [1] = molecular target: T1, native human ApoC3 (human, UniProt P02656 21-99); assay: SPR, ApoC3 over captured IgG1, pH 7.4
T1 construct: also called nhuApoC3; native huApoC3
Experimental: (§1) An inverted SPR assay was designed in which a test antibody was captured on an SPR chip, human ApoC3 protein was injected, and binding of ApoC3 to the antibody was measured. […] The immobilization was performed in accordance with the method provided by Biacore/GE using the NHS/EDC kit (Biacore AB, Cat.nr. BR-1000-50): after activation of the chip, a solution of 30 μg/ml of anti-human Fcγ antibody in 10 mM acetate buffer with pH of 5.0 was prepared and injected until the surface density reached approximately 10000 RU. The analytical cycle comprised the following steps:
(§2) The resulting sensorgrams were analyzed using the BIAevaluation 4.1 software using Langmuir 1:1 binding model to derive binding kinetics. Data was zero adjusted, the reference cell sensorgrams were subtracted and the no analyte blank assay was used for double referencing the sensorgrams corresponding to the analyte injections. The dissociation and association phase sensorgrams were fitted separately for the 4 different concentration curves. Sensorgrams were excluded from the fitting if maximum RU values reached were below the detection limit of the equipment (<5 RU), Biacore 3000 (Biacore AB).

[2] = molecular target: T2, biotinylated native human ApoC3 (human, UniProt P02656 21-99, biotinylated (site not stated)); assay: SPR, IgG1 over biotinylated ApoC3 on SA chip, pH 7.4
T2 construct: also called biotinylated human ApoC3
T2 sequence (P02656 21-99): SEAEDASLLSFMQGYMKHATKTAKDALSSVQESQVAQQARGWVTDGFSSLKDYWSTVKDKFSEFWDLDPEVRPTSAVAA
Experimental: (§3) Biotinylated native human ApoC3 was captured on a streptavidin coated SPR chip (GE Healthcare, cat. nr. BR100032) at pH 7.4, in accordance with the method provided by Biacore, by injection of 20 μl 10 μg/ml biotinylated native human ApoC3 reaching the surface density of approximately 500 RU. 60 μL of test antibody in 1-50 nM range diluted in HBS-EP buffer (GE, cat # BR-1008-26; 0.010 M HEPES, 0.150M NaCl, 3 mM EDTA, 0.05% (v/v) surfactant P20, pH 7.4) was injected and passed through the flow cells at a flow rate of 30 μl/min, followed by an off-rate wash at pH7.4 for 5 min. After the dissociation, the flow cell surfaces were regenerated by injecting 10 μl of 10 mM NaOH/1 M NaCl and 10 μl of 10 mM glycine at pH1.5. The assay was repeated at pH5.5 using the same general protocol, where the running and sample dilution buffer was replaced by a HBS-EP buffer supplemented with citrate buffer to 10 mM final concentration and pH adjusted to 5.5.
(§4) The resulting sensorgrams were analyzed using the BIAevaluation 4.1 software using Langmuir 1:1 binding model to derive binding kinetics. Data was zero adjusted and the reference cell sensorgrams were subtracted. Sensorgrams were double referenced to no-analyte blank assay. Fitted parameters were considered not applicable if off-rate values were below the equipment's detection limit of kd: 1×10⁻⁶ 1/s.

native human ApoC3 [3] = molecular target: T1, native human ApoC3; assay: SPR, ApoC3 over captured IgG1
Experimental: as §1, §2

[4] = molecular target: T2, biotinylated native human ApoC3; assay: SPR, IgG1 over biotinylated ApoC3 on SA chip, pH 5.5
Experimental: as §3, §4

[5] = molecular target: T2, biotinylated native human ApoC3; assay: SPR, IgG1 over biotinylated ApoC3 on SA chip
Experimental: as §3, §4

native human ApoC3 [6] = molecular target: T1, native human ApoC3; assay: SPR, ApoC3 over captured IgG1, pH 5.5
Experimental: as §1, §2

T1 sequence (P02656 21-99): as above

Row | Binder | Ka (native human ApoC3 [1]) [M⁻¹] | koff (native human ApoC3 [1]) [s⁻¹] | kon (native human ApoC3 [1]) [M⁻¹ s⁻¹] | Ka [2] [M⁻¹] | Kd [2] [nM] | koff [2] [s⁻¹] | kon [2] [M⁻¹ s⁻¹] | KD (nM) pH5.5/pH7.4 (native human ApoC3 [3]) | Ka [4] [M⁻¹] | Kd [4] [nM] | koff [4] [s⁻¹] | kon [4] [M⁻¹ s⁻¹] | KD pH5.5/KD pH7.4 [5] | Ka (native human ApoC3 [6]) [M⁻¹] | koff (native human ApoC3 [6]) [s⁻¹] | kon (native human ApoC3 [6]) [M⁻¹ s⁻¹] | Kd (native human ApoC3 [1]) [nM]
1 | mAb9 (antibody, IgG1, V domains shown, Produced as full length IgG1 (kappa) in ExpiCHO-S cells; also called humanized anti-ApoC3 antibody mAb9) VH: QLVESGGGLVQPGGSLRLSCAASGFTFSTYSMRWVRQAPGKGLEWVSSIHTDAGGTAYRDSVKGRFTISRDNAKNTLYLQMNNLRAEDTAVYYCVIAGYSDWGQGTLVTVSS VL: DIVMTQSPLSLSVTPGEPASISCKTSQGLVHSDGKTYFYWFLQKPGQSPQQLIYQVSNRASGVPDRFSGSGSGTDFTLKISRVEAEDVGVYYCAHGTYYPHTFGQGTRLEIK | 4.31e+06 | 0.00669 | 28800 | 6.71e+09 | 0.15 | 3.32e-05 | 223000 | 2.33 | 1.32e+09 | 0.76 | 0.000369 | 486000 | 5.09 | 1.85e+06 | 0.0467 | 86300 | 
2 | mAb10 (antibody, IgG1, V domains shown, Produced as full length IgG1 (kappa) in ExpiCHO-S cells; also called humanized anti-ApoC3 antibody mAb10) VH: QLVESGGGLVQPGGSLRLSCAASGFTFSTYSMRWVRQVPGKGLEWVSSIHTEGGGTAYRDSVKGRFTISRDNAKNTLYLQMNNLRAEDTAVYYCVIAGYSDWGQGTLVTVSS VL: DIVMTQSPLSLSVVPGEPASISCKTSQGLVHSDGKTYFYWFLQKPGQSPQQLIYQVSNRASGVPDRFSGSGSGTDFTLKISRVEAEDVGVYYCAHGTYYPHTFGQGTRLEIK | 5.3e+06 | 0.00601 | 31900 | 1.05e+10 | 0.1 | 2.12e-05 | 221000 | 1.77 | 3.7e+09 |  | 0.000113 | 417000 | 2.82 | 2.99e+06 | 0.0274 | 82100 | 
3 | mAb11 (antibody, IgG1, V domains shown, Produced as full length IgG1 (kappa) in ExpiCHO-S cells; also called humanized anti-ApoC3 antibody mAb11) VH: QLVESGGGLVQPGGSLRLSCAASGFTFSTYSMRWVRQVPGKGLEWVSSIHTEGGGTAYRDSVKGRFTISRDNAKNTLYLQMNNLRAEDTAVYYCVIAGYSDWGQGTLVTVSS VL: DIVMTQSPLSLSVTPGEPASISCKTSQGLVHSDGKTYFYWFLQKPGQSPQQLIYQVSNRASGVPDRFSGSGSGTDFTLKISRVEAEDVGVYYCAHGTYYPHTFGQGTRLEIK | 7.73e+06 | 0.00523 | 40400 | 5.77e+09 | 0.17 | 3.8e-05 | 219000 | 3.9 | 3.02e+09 | 0.33 | 0.000147 | 445000 | 1.91 | 1.99e+06 | 0.0405 | 80500 | 
4 | mAb8 (antibody, IgG1, V domains shown, Produced as full length IgG1 (kappa) in ExpiCHO-S cells; also called humanized anti-ApoC3 antibody mAb8) VH: QLVESGGGLVQPGGSLRLSCAASGFTFSTYSMRWVRQAPGKGLEWVSSIHTDAGGTAYRDSVKGRFTISRDNAKNTLYLQMNNLRAEDTAVYYCVIAGYSDWGQGTLVTVSS VL: DIVMTQSPLSLSVVPGEPASISCKTSQGLVHSDGKTYFYWFLQKPGQSPQQLIYQVSNRASGVPDRFSGSGSGTDFTLKISRVEAEDVGVYYCAHGTYYPHTFGQGTRLEIK | 4.15e+06 | 0.00772 | 32100 | 9.83e+09 | 0.1 | 2.41e-05 | 237000 | 1 | 1.34e+09 | 0.75 | 0.000367 | 490000 | 7.34 | 4.13e+06 | 0.0205 | 84600 | 

Stronger by Kd [2], values ahead:

Row | Ka (native human ApoC3 [1]) [M⁻¹] | koff (native human ApoC3 [1]) [s⁻¹] | kon (native human ApoC3 [1]) [M⁻¹ s⁻¹] | Ka [2] [M⁻¹] | Kd [2] [nM] | koff [2] [s⁻¹] | kon [2] [M⁻¹ s⁻¹] | KD (nM) pH5.5/pH7.4 (native human ApoC3 [3]) | Ka [4] [M⁻¹] | Kd [4] [nM] | koff [4] [s⁻¹] | kon [4] [M⁻¹ s⁻¹] | KD pH5.5/KD pH7.4 [5] | Ka (native human ApoC3 [6]) [M⁻¹] | koff (native human ApoC3 [6]) [s⁻¹] | kon (native human ApoC3 [6]) [M⁻¹ s⁻¹] | Kd (native human ApoC3 [1]) [nM] | Binder
5 | 4.05e+06 | 0.012 | 48500 | 1.08e+10 | 0.09 | 3.37e-05 | 364000 | 2.36 | 2.05e+08 |  | 0.00321 | 656000 | 52.7 | 1.71e+06 | 0.0646 | 111000 |  | mAb7 (antibody, V domains shown, Produced as full length IgG1 (kappa) in ExpiCHO-S cells; also called humanized anti-ApoC3 antibody mAb7) VH: QLVESGGGLVQPGGSLRLSCAASGFTFSTYSMRWVRQAPGKGLEWVSSIHTGGGGTAYRDSVKGRFTISRDNAKNTLYLQMNNLRAEDTAIYYCVIAGYSDWGQGTLVTVSS VL: DIVMTQSPLSLPVTPGESASISCKTSQGLVHSDGKTYFYWFLQKPGQSPQQLIYQVSNRASGVPDRFSGSGSGTDFTLKISRVKAEDAGVYYCAHGTYYPHTFGQGTRLEIK
6 | 3.12e+06 | 0.00655 | 20400 | 1.53e+10 | 0.07 | 1.49e-05 | 228000 | 1.07 | 7.18e+09 | 0.14 | 6.73e-05 | 483000 | 2.12 | 2.91e+06 | 0.0251 | 73200 |  | mAb12 (antibody, IgG1, V domains shown, Produced as full length IgG1 (kappa) in ExpiCHO-S cells; also called humanized anti-ApoC3 antibody mAb12) VH: QLVESGGGLVQPGGSLRLSCAASGFTFSTYSMRWVRQVPGKGLEWVSSIHTDAGGTAYRDSVKGRFTISRDNAKNTLYLQMNSLRPEDTAIYYCVIAGYSDWGQGTLVTVSS VL: DIVMTQSPLSLSVTPGEPASISCKTSQGLVHSDGKTYFYWFLQKPGQSPQQLIYQVSNRASGVPDRFTGSGSGTDFTLKISRVKAEDVGVYYCAHGTYYPHTFGQGTRLEIK
7 | 6.08e+06 | 0.00672 | 40900 | 1.67e+10 | 0.06 | 1.33e-05 | 222000 | 5.22 | 2.88e+09 | 0.35 | 0.000148 | 425000 | 5.79 | 1.16e+06 | 0.0802 | 93100 |  | mAb6 (antibody, IgG1, V domains shown, Produced as full length IgG1 (kappa) in ExpiCHO-S cells; also called humanized anti-ApoC3 antibody mAb6) VH: QLVESGGGLVQPGGSLRLSCAASGFTFGTYSMRWVRQAPGKGLEWVSSIHTEGGGTAYRDSVKGRFTISRDNAKNTLYLQMNSLRAEDTAVYYCVIAGYSDWGQGTLVTVSS VL: DIVMTQSPLSLPVTPGESASISCKTSQGLVHSDGKTYFYWFLQKPGQSPQQLIYQVSNRASGVPDRFSGSGSGTDFTLKISRVKAEDAGVYYCAHGTYYPHTFGQGTRLEIK
8 | 2.82e+07 | 0.00463 | 130000 | 2.21e+10 | 0.05 | 2.9e-05 | 640000 | 4.42 | 2.4e+09 | 0.42 | 0.000296 | 710000 | 9.21 | 6.37e+06 | 0.0198 | 127000 | 36 | mAb19 (antibody, IgG1, V domains shown, Produced as full length IgG1 (kappa) in ExpiCHO-S cells; also called humanized anti-ApoC3 antibody mAb19) VH: QLVESGGGLVQPGGSLRLSCAASGFTFSTYSMRWVRQAPGKGLEWVSSIHTDAGGTAYRDSVKGRFTISRDNAKNTLYLQMNNLRPEDTAVYYCVIAGYSDWGQGTLVTVSS VL: DIVMTQSPGSLSVTPGEPASISCKTSQGLVHSGGKTYFYWFLQKPGQSPQQLIYQVSNRASGVPDRFTGSGSGTDFTLKISGVEAEDAGVYYCAQGTYYPHTFGQGTRLEIK
9 | 1.6e+07 | 0.00616 | 98700 | 2.15e+10 | 0.05 | 2.33e-05 | 503000 | 4.12 | 2.92e+09 | 0.34 | 0.000276 | 806000 | 7.37 | 3.89e+06 | 0.0217 | 84500 | 62 | mAb17 (antibody, IgG1, V domains shown, Produced as full length IgG1 (kappa) in ExpiCHO-S cells; also called humanized anti-ApoC3 antibody mAb17) VH: QLVESGGGLVQPGGSLRLSCAASGFTFSTYSMRWVRQAPGKGLEWVSSIHTEAGGTAYRDSVKGRFTISRDNAKNTLYLQMNNLRAEDTAVYYCVIAGYSDWGQGTLVTVSS VL: DIVMTQSPLSLPVTPGEPASISCKTSQGLVHSGGKTYFYWFLQKPGQSPQQLIYQVSNRASGVPDRFTGSGSGTDFTLKISRVEAEDAGVYYCAQGTYYPHTFGQGTRLEIK
